Experimental data as given in article PMC5693625.
Where two headings read alike, the source gives them in different places.

Assays:
Assay in all cases: functional binding isotherm
DDX3X [1] = target: T1, DDX3X (Homo sapiens, UniProt O00571 1-662)
DDX3X [2] = target: T1, DDX3X; remark: listed apart in the source
DDX3X [3] = target: T1, DDX3X; remark: listed apart in the source

T1 sequence (O00571 whole entry): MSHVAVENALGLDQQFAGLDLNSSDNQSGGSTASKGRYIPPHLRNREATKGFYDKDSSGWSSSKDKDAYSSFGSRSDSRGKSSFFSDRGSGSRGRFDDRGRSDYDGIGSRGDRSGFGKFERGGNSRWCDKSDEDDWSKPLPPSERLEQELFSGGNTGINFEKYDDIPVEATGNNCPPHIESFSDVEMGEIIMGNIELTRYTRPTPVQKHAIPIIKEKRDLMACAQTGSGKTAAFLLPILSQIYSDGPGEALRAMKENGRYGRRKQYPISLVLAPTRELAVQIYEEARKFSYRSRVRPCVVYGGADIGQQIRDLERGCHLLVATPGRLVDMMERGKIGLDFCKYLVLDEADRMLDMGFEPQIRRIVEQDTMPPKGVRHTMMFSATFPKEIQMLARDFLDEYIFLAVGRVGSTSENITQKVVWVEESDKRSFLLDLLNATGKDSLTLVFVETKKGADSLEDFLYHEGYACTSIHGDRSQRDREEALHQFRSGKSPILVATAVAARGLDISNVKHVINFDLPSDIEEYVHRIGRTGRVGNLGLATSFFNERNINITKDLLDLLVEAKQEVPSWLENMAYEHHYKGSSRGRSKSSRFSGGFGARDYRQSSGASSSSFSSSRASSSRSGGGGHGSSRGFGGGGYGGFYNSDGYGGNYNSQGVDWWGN

B1: 13 bp RNA, 25 nt 5' tail (R13-5'a/R38-5'a) (dsRNA)
RNA 1: CGAAAUGCCACGA
RNA 2: AAAACAAAACAAAACAAAACAAAAUUCGUGGCAUUUCG
DDX3X [1]
  apparent K (half saturation): 139 ± 21 nM

B2: 16 bp RNA, 25 nt 3' tail (R16-3'c/R41-3'c) (dsRNA)
RNA 1: CCGUCUUUACGGUGCU
RNA 2: AGCACCGUAAAGACGGUAAAACAAAACAAAACAAAACAAAA
DDX3X [2]
  apparent K (half saturation): 118 ± 5 nM

B3: 16 bp RNA, 25 nt 5' tail (R16-5'a/R41-5'a) (dsRNA)
RNA 1: AGCACCGUAAAGACGC
RNA 2: AAAACAAAACAAAACAAAACAAAAUGCGUCUUUACGGUGCU
DDX3X [3]
  apparent K (half saturation): 119 ± 35 nM
DDX3X [2]
  apparent K (half saturation): 127 ± 20 nM

B4: 19 bp RNA, 25 nt 5' tail (R19-5'c/R44-5'c) (dsRNA)
RNA 1: CAGAGGAGCAGAGGGAGCA
RNA 2: AAACUACGACUACAGUAACUACGACUGCUCCCUCUGCUCCUCUG
DDX3X [3]
  apparent K (half saturation): 166 ± 18 nM

B5: 16 bp RNA, 15 nt 3' tail (dsRNA)
RNA 1: CCGUCUUUACGGUGCU
RNA 2: AGCACCGUAAAGACGGUAAAACAAAACAAAA
DDX3X [2]
  apparent K (half saturation): 298 ± 4 nM
